{
  "source": "paper doi:10.1101/2025.04.14.648677",
  "about": "(bioRxiv, 2025)",
  "key": {"[1]": {"biological_target": "IRE1β_LD, wildtype (analytical SEC) (not stated (human numbering used; mouse IRE1β_LD used in cells))", "experiment": "SEC"}, "[2]": {"biological_target": "T1, AGR2 H117Y (not stated (human or mouse AGR2 made)), O95994", "T1 chain": "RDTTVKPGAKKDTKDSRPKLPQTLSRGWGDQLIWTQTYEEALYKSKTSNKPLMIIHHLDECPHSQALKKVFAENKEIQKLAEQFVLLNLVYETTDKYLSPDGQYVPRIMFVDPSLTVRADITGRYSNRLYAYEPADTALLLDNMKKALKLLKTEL", "experiment": "SEC", "settings": "remark: other sources report otherwise"}, "SEC-SAXS": {"biological_target": "the molecule itself", "experiment": "SEC-SAXS"}, "AUC": {"biological_target": "the molecule itself", "experiment": "AUC"}},
  "data": [
    {"molecule": "IRE1β_LD, wildtype (analytical SEC) (domain or fragment)", "values": [
      {"measurement": "stoichiometry N", "setting": "[1]", "result": 2}
    ]},
    {"molecule": "AGR2 H117Y, O95994 21-175 (natural protein) RDTTVKPGAKKDTKDSRPKLPQTLSRGWGDQLIWTQTYEEALYKSKTSNKPLMIIHHLDECPHSQALKKVFAENKEIQKLAEQFVLLNLVYETTDKYLSPDGQYVPRIMFVDPSLTVRADITGRYSNRLYAYEPADTALLLDNMKKALKLLKTEL", "values": [
      {"measurement": "stoichiometry N", "setting": "[2]", "result": 2}
    ]},
    {"molecule": "Human AGR2^41-171 (domain or fragment, UniProt O95994 41-171, looked up) PQTLSRGWGDQLIWTQTYEEALYKSKTSNKPLMIIHHLDECPHSQALKKVFAENKEIQKLAEQFVLLNLVYETTDKHLSPDGQYVPRIMFVDPSLTVRADITGRYSNRLYAYEPADTALLLDNMKKALKLL", "values": [
      {"measurement": "stoichiometry N", "setting": "SEC-SAXS", "result": 2}
    ]},
    {"molecule": "mouse AGR2 (residues 21-175), AUC (natural protein, UniProt O88312 21-175, looked up) KDTTVKSGAKKDPKDSRPKLPQTLSRGWGDQLIWTQTYEEALYRSKTSNRPLMVIHHLDECPHSQALKKVFAEHKEIQKLAEQFVLLNLVYETTDKHLSPDGQYVPRIVFVDPSLTVRADITGRYSNRLYAYEPSDTALLYDNMKKALKLLKTEL", "values": [
      {"measurement": "binding result", "setting": "AUC", "result": "binds"}
    ]}
  ]
}
